In the supplement of paper PMC12764529:
± gives the half width of the 95% confidence interval.

Tests used:
[1] = folding stability dG unfold (combined trypsin and chymotrypsin); higher = more stable
Method in brief: (§1)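 Sequencing followed digestion of designed mini-proteins with trypsin and chymotrypsin, each at 11 concentrations in threefold dilutions together with a no-protease condition. The mini-proteins were under 80 residues, had no cysteine, sat in a PA-tagged cDNA display construct, and were kept only if AlphaFold2 dimer inter-PAE was above 15. From the counts, Bayesian fitting gave K50, and unfolding free energy was derived against a sequence-predicted unfolded-state K50 and a shared folded-state K50, per protease or combined.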

[2] = folding stability dG unfold from trypsin proteolysis; higher = more stable
Method in brief: as §1

[3] = folding stability dG unfold from chymotrypsin proteolysis; higher = more stable
Method in brief: as §1

Row | Sequence | folding stability dG unfold [1] [kcal/mol] | folding stability dG unfold [2] [kcal/mol] | folding stability dG unfold [3] [kcal/mol]
1 | SAGGSAGGSGFKIVKVDTETGYVYVEVPKSAEKELEKLPSVEKVEEKEDSVLYRLRIPPFAALSAGGSAGGS [r12_694_TrMRF] | 1.81 ± 0.19 | 1.78 ± 0.069 | 1.95 ± 0.086
2 | SAGGSAGGSGGMMSRTINVSVNPAPGESPEDIVKALAAELGVTIKSVKYSTSSSSLTFTIEVVSAGGSAGGS [r20_188_JUSTAS] | 2.16 ± 0.068 | 1.05 ± 0.04 | 2.48 ± 0.077
3 | SAGGSAGGSGIKIIMEFIFPDDGYIFKIEIDIKPNPENGEPVIEMKIEMYPIDPGQPPDLKDLSAGGSAGGS [r12_700_TrROS] | 3.26 ± 0.2 | 2.48 ± 0.11 | 3.45 ± 0.071
4 | SAGGSAGGSGIKITEYKINPETGTIEKTEIYIKPIPNTNKLKIEKKTKSIPILPDQKPDLSLDSAGGSAGGS [r12_700_TrMRF] | 0.412 ± 0.27 | -0.235 ± 0.18 | 0.809 ± 0.36
5 | SAGGSAGGSGITIPAGSPEKVYELLSALEKLGFKPKKVSVSGNYVIVDFENGIPVNIEINPGKSAGGSAGGS [r20_93_TrMRF] | 2.38 ± 0.052 | 1.06 ± 0.059 | 2.85 ± 0.039
6 | SAGGSAGGSGKKRKVEIPIFFSGPPEVADNLAKTLAQELGLPPEDVDIEIKVIPIMPPEQMAESAGGSAGGS [r12_1066_TrROS] | 0.721 ± 0.076 | 0.477 ± 0.054 | 0.818 ± 0.046
7 | SAGGSAGGSGLTKELAKKFNVTAIEEFENGLVKILTKPPIKGNPYLAIIDPKNKKVYIIPLNPSAGGSAGGS [r12_944_TrMRF] | 1.29 ± 0.071 | 0.849 ± 0.037 | 1.62 ± 0.082
8 | SAGGSAGGSGMEKIVVEVKFPDGTVETYEFPAGVPVNIDPAVTGDVKITTLDPEGKTTEYVLKSAGGSAGGS [r12_380_JUSTAS] | -0.118 ± 0.1 | -0.0804 ± 0.046 | -0.297 ± 0.2
9 | SAGGSAGGSGMELEKLLESVKEVKVEPTSSGEKEVTITLKPPEPSETEVKIDKETYEKLLELKSAGGSAGGS [r12_466_JUSTAS] | 0.137 ± 0.12 | -0.907 ± 0.21 | 0.404 ± 0.024
10 | SAGGSAGGSGMKTLTIEFPNVTLEEAKEAVLKLLEELGLEPIPLEKVTITYHPENPNVITVVESAGGSAGGS [r12_122_JUSTAS] | 1.35 ± 0.17 | 1.5 ± 0.098 | 1.14 ± 0.12
11 | SAGGSAGGSGPMPVVVPVEVVVAPGEVDAYVARLRAEGLEVLSVETEPDPEGGTRVTVTVRRLSAGGSAGGS [r12_905_JUSTAS] | 3.41 ± 0.059 | 2.74 ± 0.054 | 3.72 ± 0.057
12 | SAGGSAGGSGSLRLRVRSPEQALEWLRRVLPPDFDLTPEELEELVRFLLATSEVTPDGYLLLRSAGGSAGGS [r12_983_TrMRF] | 2.32 ± 0.042 | 1.826 ± 0.018 | 2.52 ± 0.051
13 | SAGGSAGGSGSMKEIEIEIPKDDPQLIEKIKEELKQKNSKKVEVKEIKKTPEGKYKVKIIIEESAGGSAGGS [r12_91_JUSTAS] | 0.879 ± 0.17 | 1.03 ± 0.1 | 0.901 ± 0.081
14 | SAGGSAGGSGSMPVTIEIEYKDPKSDKTFKKTILVPPSVTDPEAVAEEVAKELGPVEKVKITSSAGGSAGGS [r12_942_JUSTAS] | 0.0443 ± 0.48 | 0.595 ± 0.061 | -0.44 ± 0.24
15 | SAGGSAGGSGSSLVSETVEEGPGLTTRTLTYRLPGAPGVLLERTVTYDPEGNELATSLTVVPESAGGSAGGS [r12_62_JUSTAS] | 0.15 ± 0.059 | 0.0552 ± 0.052 | 0.0935 ± 0.076
16 | SAGGSAGGSGWIKIEFWIPIPIPVMKFDPGDGNWEMEPVTIMIRVEIEIPIPPSPEDLEKNGLSAGGSAGGS [r20_172_TrROS] | 2.57 ± 0.27 | 2.2 ± 0.15 | 2.82 ± 0.069
17 | SAGGSAGGSGWRPARVVRVERYRDPVNPRWYYRVEAELPDRRVTLVVPENAPVDEDGVLLIPFSAGGSAGGS [r20_49_TrMRF] | 1.35 ± 0.034 | 1.09 ± 0.027 | 1.45 ± 0.042
18 | SAGGSAGGSGWYFHFEVSIWVMEFKYPGPDGKTMTMWFIMIEIKIEIVPPPPITPEDAAKMNGSAGGSAGGS [r12_1060_TrROS] | 3.76 ± 0.16 | 2.66 ± 0.06 | 4.24 ± 0.087
